Source: the supplement of paper PMC10724198
± gives the standard deviation of the averaged measurements.

Assays:
Assay in all cases: protein stability index of tFT-peptide fusion (C-terminal peptide) (PSI (0-1 scale)); higher = more stable (slower turnover)
[1] = test system: Saccharomyces cerevisiae; conditions: temperature: 30 C
Method: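 MPS profiling in S. cerevisiae of the yeast C-terminome library: the last 12 aa of each annotated ORF are fused to the C-terminus of a sfGFP-mCherry timer, after a GGGS linker. Cells are FACS-sorted into 8 mCherry/sfGFP bins and deep-sequenced. PSI runs from 0 (unstable) to 1 (stable); wild type and das1Δ backgrounds, two technical replicates each.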

[2] = test system: Saccharomyces cerevisiae
Method: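 MPS profiling in S. cerevisiae of the tFT-X12 degron library: putative degron peptides plus stable controls, 12 aa, fused to the C-terminus of a sfGFP-mCherry timer. Cells are FACS-sorted into 8 mCherry/sfGFP bins and deep-sequenced. PSI runs from 0 (unstable) to 1 (stable). Backgrounds are wild type, das1Δ and doa10Δ at 30 °C, and wild type, das1Δ, cdc34-1 and cdc53-1 at 37 °C; 2-3 technical replicates each.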

[3] = test system: Saccharomyces cerevisiae; conditions: genetic background: wild type; temperature: 30 C
[4] = genetic background: das1 deletion
[5] = genetic background: cdc34-1, temperature: 37 C
[6] = genetic background: cdc53-1, temperature: 37 C
[7] = genetic background: das1 deletion, temperature: 30 C
[8] = genetic background: das1 deletion, temperature: 37 C
[9] = genetic background: doa10 deletion, temperature: 30 C
[10] = genetic background: wild type, temperature: 30 C
[11] = genetic background: wild type, temperature: 37 C

Sequence | protein stability index [1, 4] | protein stability index ([1]; genetic background: wild type) | further results
AAAIAGAAALLL [DAN1 C-terminal 12 aa] | 0.712 ± 0.013 | 0.732 ± 0.035 | 
AAPQDINQQPNQ [LDS1 C-terminal 12 aa] | 0.727 ± 0.028 | 0.671 ± 0.0087 | 
AAQLSSILPKYM [YLR140W C-terminal 12 aa] | 0.674 ± 0.056 | 0.566 ± 0.063 | 
AAVAKQKVSDSK [DHR2 C-terminal 12 aa] | 0.664 ± 0.024 | 0.654 ± 0.024 | 
AAVRQRREVNKK [ARO4 C-terminal 12 aa] | 0.6893 ± 0.006 | 0.676 ± 0.04 | 
ADFLAKKGASRR [RNH1 C-terminal 12 aa] | 0.6944 ± 0.002 | 0.698 ± 0.03 | 
ADVRYPNIDDYL [HCS1 C-terminal 12 aa] | 0.73454 ± 6.5e-05 | 0.713 ± 0.048 | 
AEELWADIVGSA [TRP2 C-terminal 12 aa] | 0.75126 ± 0.00045 | 0.684 ± 0.019 | 
AFEELYMGNCND [SIR1 C-terminal 12 aa] | 0.7218 ± 0.0021 | 0.674 ± 0.035 | 
AFFAVILLYIPG [YKR073C C-terminal 12 aa] | 0.287 ± 0.027 | 0.302 ± 0.018 | 
AFMMICEKLITL [SEC59 C-terminal 12 aa] | 0.7062 ± 0.0011 | 0.5394 ± 0.0032 | 
AGALAAVAAMLL [TIR4 C-terminal 12 aa] | 0.707 ± 0.037 | 0.679 ± 0.024 | 
AGALAVAAAYLL [CWP1 C-terminal 12 aa] | 0.693 ± 0.013 | 0.669 ± 0.0081 | 
AGSSKFLKGAKI [MRS1 C-terminal 12 aa] | 0.707 ± 0.037 | 0.673 ± 0.0098 | 
AGTLDGRLAIWY [BPH1 C-terminal 12 aa] | 0.6943 ± 0.0032 | 0.686 ± 0.014 | 
AIAKSIPKRVGL [PUT1 C-terminal 12 aa] | 0.718 ± 0.035 | 0.6998 ± 0.0057 | 
AINEGHEGFGLA [TOM1 C-terminal 12 aa] | 0.663 ± 0.025 | 0.687 ± 0.024 | 
AKNGDYVKIEQP [YMR315W C-terminal 12 aa] | 0.6792 ± 0.0039 | 0.729 ± 0.019 | 
ALAASRAEQPPA [YCR049C C-terminal 12 aa] | 0.691 ± 0.0084 | 0.712 ± 0.012 | 
ALEEALMDRLQF [ATG29 C-terminal 12 aa] | 0.7094 ± 0.0057 | 0.6947 ± 0.0064 | 
ALGLAGVAMLFL [SED1 C-terminal 12 aa] | 0.694 ± 0.02 | 0.647 ± 0.0089 | 
ALGMYFLGPALK [YGL063C-A C-terminal 12 aa] | 0.697 ± 0.02 | 0.7443 ± 0.0028 | 

Sequence | protein stability index [1, 4] | protein stability index ([1]; genetic background: wild type) | further results
ALSKDGIYTIAN [PAU1 C-terminal 12 aa] | 0.711 ± 0.0085 | 0.721 ± 0.017 | 
AMYDKITESQKK [CHD1 C-terminal 12 aa] | 0.714 ± 0.027 | 0.683 ± 0.0096 | 
ANSLDAIFLKSK [YNL150W C-terminal 12 aa] | 0.6777 ± 0.0042 | 0.669 ± 0.021 | 
APTPEACESCSG [RNR3 C-terminal 12 aa] | 0.696 ± 0.01 | 0.6947 ± 0.003 | 
AREQLYEKLEQA [MIC27 C-terminal 12 aa] | 0.697 ± 0.007 | 0.6716 ± 0.0039 | 
ARMTGETPVAKH [YHM2 C-terminal 12 aa] | 0.688 ± 0.033 | 0.677 ± 0.016 | 
ATEITPLLNIAE [VLD1 C-terminal 12 aa] | 0.674 ± 0.018 | 0.773 ± 0.033 | 
ATSLSPNKASAS [YJL026C-A C-terminal 12 aa] | 0.685 ± 0.015 | 0.6601 ± 0.0011 | 
ATVSKIIKLDRK [MYO4 C-terminal 12 aa] | 0.711 ± 0.0089 | 0.691 ± 0.025 | 
AVHSFNTPAVQS [COX1 C-terminal 12 aa] | 0.6863 ± 0.0034 | 0.676 ± 0.019 | 
AWAKKLKSMRRS [TAM41 C-terminal 12 aa] | 0.709 ± 0.013 | 0.634 ± 0.021 | 
AWIADLDHTVQP [CHS6 C-terminal 12 aa] | 0.718 ± 0.017 | 0.708 ± 0.011 | 
AYECAKHFLMKN [MRS4 C-terminal 12 aa] | 0.7061 ± 0.0038 | 0.5284 ± 0.0001 | 
AYETLTGSKWSH [ADE1 C-terminal 12 aa] | 0.704 ± 0.01 | 0.704 ± 0.015 | 
CADCGTILNNFR [DGR2 C-terminal 12 aa] | 0.731 ± 0.017 | 0.748 ± 0.045 | 
CCCFLLELVCDN [YDR210W C-terminal 12 aa] | 0.512 ± 0.013 | 0.523 ± 0.018 | 
CDVKSSIIVGIL [YLR358C C-terminal 12 aa] | 0.638 ± 0.02 | 0.655 ± 0.059 | 
CIEIARHFVLKE [YEL009C-A C-terminal 12 aa] | 0.73 ± 0.014 | 0.708 ± 0.027 | 
CKQNSNCEYLYM [YOR365C C-terminal 12 aa] | 0.682 ± 0.012 | 0.699 ± 0.012 | 
CLRTVLKSDEIK [SFA1 C-terminal 12 aa] | 0.647 ± 0.025 | 0.663 ± 0.021 | 
CLSGIGLFPVSS [YHL030W-A C-terminal 12 aa] | 0.6846 ± 0.0057 | 0.69 ± 0.021 | 
CSTERPKRARCD [YOR342C C-terminal 12 aa] | 0.708 ± 0.0099 | 0.695 ± 0.029 | 

Sequence | protein stability index [1, 4] | protein stability index ([1]; genetic background: wild type) | further results
DALDIANRIGYI [RPL25 C-terminal 12 aa] | 0.668 ± 0.027 | 0.683 ± 0.012 | 
DDDDDGPYADDS [GSY2 C-terminal 12 aa] | 0.707 ± 0.0079 | 0.706 ± 0.019 | 
DDDEFDEDEFED [PAH1 C-terminal 12 aa] | 0.695 ± 0.03 | 0.7188 ± 0.0021 | 
DDKPKIPTMLNA [YME1 C-terminal 12 aa] | 0.7003 ± 0.0065 | 0.671 ± 0.046 | 
DDPDENTALLGA [YDR338C C-terminal 12 aa] | 0.7076 ± 0.0037 | 0.711 ± 0.034 | 
DDSSSTDTEERE [SSK2 C-terminal 12 aa] | 0.675 ± 0.028 | 0.683 ± 0.029 | 
DEDEFENQRQQF [YIL055C C-terminal 12 aa] | 0.71 ± 0.0099 | 0.709 ± 0.076 | 
DEEKQLSLSDMI [YOR186W C-terminal 12 aa] | 0.692 ± 0.03 | 0.672 ± 0.019 | 
DEFCSQRSYTRF [MIN7 C-terminal 12 aa] | 0.716 ± 0.042 | 0.701 ± 0.032 | 
DEQGNELSPRNY [MID2 C-terminal 12 aa] | 0.69199 ± 0.00026 | 0.723 ± 0.035 | 
DFFDYDLLFQND [PIP2 C-terminal 12 aa] | 0.767 ± 0.021 | 0.788 ± 0.034 | 
DFSKFKDSRLYD [YND1 C-terminal 12 aa] | 0.688 ± 0.034 | 0.671 ± 0.01 | 
YHRKAILMCTFS |  |  | protein stability index [2, 5]: 0.506 ± 0.044; protein stability index [2, 6]: 0.55 ± 0.011; protein stability index [2, 7]: 0.443 ± 0.02; protein stability index [2, 8]: 0.5702 ± 0.0011; protein stability index [2, 9]: 0.3072 ± 0.00055; protein stability index [2, 10]: 0.299 ± 0.017; protein stability index [2, 11]: 0.461 ± 0.021; protein stability index [3]: 0.443 ± 0.078
YIFLPIALVFFP |  |  | protein stability index [2, 5]: 0.435 ± 0.021; protein stability index [2, 6]: 0.536 ± 0.014; protein stability index [2, 7]: 0.304 ± 0.037; protein stability index [2, 8]: 0.543 ± 0.022; protein stability index [2, 9]: 0.333 ± 0.02; protein stability index [2, 10]: 0.319 ± 0.014; protein stability index [2, 11]: 0.488 ± 0.015; protein stability index [3]: 0.363 ± 0.083
YLFFHMVVLVVV |  |  | protein stability index [2, 5]: 0.0358 ± 0.0027; protein stability index [2, 6]: 0.0745 ± 0.0059; protein stability index [2, 7]: 0.118 ± 0.043; protein stability index [2, 8]: 0.182 ± 0.0041; protein stability index [2, 9]: 0.0943 ± 0.019; protein stability index [2, 10]: 0.105 ± 0.048; protein stability index [2, 11]: 0.149 ± 0.019; protein stability index [3]: 0.157 ± 0.018
YLGSLQVPVHLF |  |  | protein stability index [2, 5]: 0.676 ± 0.024; protein stability index [2, 6]: 0.725 ± 0.062; protein stability index [2, 7]: 0.639 ± 0.022; protein stability index [2, 8]: 0.756 ± 0.011; protein stability index [2, 9]: 0.226 ± 0.013; protein stability index [2, 10]: 0.255 ± 0.019; protein stability index [2, 11]: 0.455 ± 0.011; protein stability index [3]: 0.352 ± 0.011
YMPKHKIQKLMQ |  |  | protein stability index [2, 5]: 0.701 ± 0.02; protein stability index [2, 6]: 0.728 ± 0.032; protein stability index [2, 7]: 0.639 ± 0.023; protein stability index [2, 8]: 0.7635 ± 0.0046; protein stability index [2, 9]: 0.425 ± 0.012; protein stability index [2, 10]: 0.46 ± 0.023; protein stability index [2, 11]: 0.607 ± 0.018; protein stability index [3]: 0.491 ± 0.067
YMVSLSFTLVRS |  |  | protein stability index [2, 5]: 0.382 ± 0.038; protein stability index [2, 6]: 0.454 ± 0.054; protein stability index [2, 7]: 0.32 ± 0.022; protein stability index [2, 8]: 0.474 ± 0.033; protein stability index [2, 9]: 0.297 ± 0.024; protein stability index [2, 10]: 0.333 ± 0.013; protein stability index [2, 11]: 0.4552 ± 0.0036; protein stability index [3]: 0.481 ± 0.041
YSGRYRTLVRCW |  |  | protein stability index [2, 5]: 0.291 ± 0.011; protein stability index [2, 6]: 0.366 ± 0.039; protein stability index [2, 7]: 0.265 ± 0.037; protein stability index [2, 8]: 0.4426 ± 0.0032; protein stability index [2, 9]: 0.199 ± 0.0059; protein stability index [2, 10]: 0.236 ± 0.033; protein stability index [2, 11]: 0.384 ± 0.02; protein stability index [3]: 0.33 ± 0.015
YVCVVSVLLGLL |  |  | protein stability index [2, 5]: 0.25 ± 0.017; protein stability index [2, 6]: 0.319 ± 0.029; protein stability index [2, 7]: 0.24 ± 0.026; protein stability index [2, 8]: 0.441 ± 0.0082; protein stability index [2, 9]: 0.19367 ± 8.4e-05; protein stability index [2, 10]: 0.226 ± 0.015; protein stability index [2, 11]: 0.3823 ± 0.0025; protein stability index [3]: 0.31 ± 0.031
